Test results from patent US20230212268A1 (UNM RAINFOREST INNOVATIONS, published 2023).
Values joined by “and” are separate entries in the source; they are usually repeats but may differ in a detail not shown here. Identical values can stand only once.

Target: T1, recombinant EBOV glycoprotein (EBOV (Zaire ebolavirus), UniProt Q05320 33-650)
T1 sequence: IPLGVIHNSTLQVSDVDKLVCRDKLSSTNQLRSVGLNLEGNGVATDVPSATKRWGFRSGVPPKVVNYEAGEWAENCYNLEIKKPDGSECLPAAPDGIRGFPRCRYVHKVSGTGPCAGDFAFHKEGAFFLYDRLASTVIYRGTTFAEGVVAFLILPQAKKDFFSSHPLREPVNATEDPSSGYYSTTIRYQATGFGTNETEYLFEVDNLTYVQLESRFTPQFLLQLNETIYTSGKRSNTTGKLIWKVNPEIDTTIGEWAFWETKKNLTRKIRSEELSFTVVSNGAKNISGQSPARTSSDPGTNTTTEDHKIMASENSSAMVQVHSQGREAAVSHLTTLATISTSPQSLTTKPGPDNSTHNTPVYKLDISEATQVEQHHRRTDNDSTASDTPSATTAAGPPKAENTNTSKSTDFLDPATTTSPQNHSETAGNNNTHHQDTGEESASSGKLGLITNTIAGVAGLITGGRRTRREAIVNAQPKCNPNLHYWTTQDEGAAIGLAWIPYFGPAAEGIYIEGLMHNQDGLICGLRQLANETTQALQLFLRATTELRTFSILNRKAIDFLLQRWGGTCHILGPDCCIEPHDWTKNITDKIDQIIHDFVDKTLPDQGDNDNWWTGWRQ
Experiment: ELISA dose response, GP coated

B1: EbovGPscFv4-2 (scFv)
scFv: MAWSHPQFEKTGSGGAELVKSGASVKLSCTASGFNIKDDYMHWVKQRPEQGLEWIGWIDPENGDTEYASKFQGKATITADTSSNTAYLQLSSLTSEDTAVYYCTTYYYGSAWFAYWGQGTLVTVSAGGGGSGGGGSGGGGSGGGGSASLSVSVGETVTITCRASGNIHNYLAWYQQKQGKSPQLLVYNAKTLADGVPSRFSGSGSGTQYSLKINNLQPEDFGSYYCQHFWSTPYTFGGGTKLEIKRADAAPTVSIFPPSSEQLTSGGASVVCFLNNFTHCQELQQDECS
EC50: 4.09 µg/mL and < 9 µg/mL
